Assay results: article PMC9321335, “Palmitic Acid-Conjugated Radiopharmaceutical for Integrin αvβ3-Targeted Radionuclide Therapy” (Pharmaceutics, 2022)
Read-outs that look alike come from different tables or passages of the source.

Key:
[1] = design: species or system C57BL/6 mice; conditions: mouse, in vivo
Procedure: Female KM mice were randomly divided into three groups (n = 5). […] Blood samples obtained from the canthus vein were collected at different time points post injection (p.i.), weighed, and evaluated using a γ-counter. The results are presented as the percentage injected activity per gram (%IA/g). Nonlinear regression (curve fit) followed by two phase decay was performed using GraphPad Prism version 9.0.0 for Windows, GraphPad Software, San Diego, CA, USA, www.graphpad.com (accessed on 22 May 2022). And then the half-lives values were calculated and determined. Blood clearance studies were performed in normal KM mice. […] Blood clearance studies were also performed in C57BL/6 mice.

[2] = physchem; assay type: physicochemical
Procedure: Briefly, the radiopharmaceuticals were prepared and purified with Sep-Pak-C18 cartridges and then dissolved in a mixed solution of 5 mL n-octanol and 5 mL PBS. After vortexing for 1 h, the mixture was centrifuged at 10,000 rpm for 10 min. Samples (100 μL, n = 4) from the n-octanol and PBS components were collected and counted using a γ-counter. The […] were calculated as the logarithm of the n-octanol/PBS ratio.

[3] = in vivo; conditions: C57BL/6, mouse, 0.74 MBq, total radioactivity
Procedure: (§1) Mice bearing MC38 xenografts were randomly divided into 10 groups (n = 4). The mice in five groups were administered 0.74 MBq/20 µCi of ^177Lu-Palm-3PRGD2 and sacrificed at 1, 4, 12, 24, and 72 h p.i. The mice on one group was injected with 0.74 MBq/20 µCi of ^177Lu-Palm-3PRGD2 and 500 μg (242 nmol) 3PRGD2 as a blocking agent and sacrificed at 1 h p.i. […] Tumors and major organs were harvested, weighed and measured for radioactivity using a γ-counter. The organ uptake was calculated as the percentage injected activity per gram (%IA/g). The effective absorbed dose in humans estimated from mouse biodistribution data by using a dedicated software (OLINDA 1.0).

[4] = cited from earlier work
Excerpt: This may be caused by several factors: first, palmitic acid can reversibly bind to albumin to prolong the blood retention time and reduce the elimination of peptides; second, ^177Lu-palm-3PRGD2 is amphiphilic and may self-assemble to form tiny nanoparticles (possibly nanospheres or nanofibers) with larger molecular sizes, resulting in lo ...

[5] = design: species or system KM mice; conditions: mouse, in vivo, iv
Procedure: Female KM mice were randomly divided into three groups (n = 5). […] Blood samples obtained from the canthus vein were collected at different time points post injection (p.i.), weighed, and evaluated using a γ-counter. The results are presented as the percentage injected activity per gram (%IA/g). Nonlinear regression (curve fit) followed by two phase decay was performed using GraphPad Prism version 9.0.0 for Windows, GraphPad Software, San Diego, CA, USA, www.graphpad.com (accessed on 22 May 2022). And then the half-lives values were calculated and determined.

[6] = system: MC38 tumor-bearing mice; assay: in vivo; conditions: mouse
Procedure: as §1

[7] = reportedly; cited from earlier work
Excerpt: Albumin makes up approximately 55–60% of serum proteins, and its biological half-life is reportedly 19 days, which makes it possible to leverage the long circulation half-life of albumin to produce long-acting therapeutics.

[8] = Tumor-to-tissue ratio, Intestine

Question: What does the source list for `N=C(N)NCCC[C@@H]1NC(=O)[C@H](CCCCNC(=O)CCOCCOCCOCCOCCNC(=O)CC[C@H](NC(=O)CCOCCOCCOCCOCCNC(=O)CN2CCN(CC(=O)O)CCN(CC(=O)O)CCN(CC(=O)O)CC2)C(=O)NCCOCCOCCOCCOCCC(=O)NCCCC[C@@H]2NC(=O)[C@@H](Cc3ccccc3)NC(=O)[C@H](CC(=O)O)NC(=O)CNC(=O)[C@H](CCCNC(=N)N)NC2=O)NC(=O)[C@@H](Cc2ccccc2)NC(=O)[C@H](CC(=O)O)NC(=O)CNC1=O` [^177Lu-3PRGD2, [^177Lu]Lu-DOTA-3PRGD2, metal not drawn]?
Answer: Half-Life (T1/2α) [1]: 1.06 min; Half-Life (T1/2β) [1]: 14.54 min; logD [2]: -4.05 ± 0.14; tissue uptake at 4 h ([3]; Blood uptake): 0.42 ± 0.26 %ID/g; tissue uptake at 12 h ([3]; Blood uptake): 0.32 %ID/g; tissue uptake at 4 h ([3]; Bone uptake): 1.41 %ID/g; tissue uptake at 12 h ([3]; Bone uptake): 1.46 %ID/g; tissue uptake at 4 h ([3]; Brain uptake): 0.09 %ID/g; tissue uptake at 12 h ([3]; Brain uptake): 0.11 %ID/g; tissue uptake at 4 h ([3]; Heart uptake): 0.75 %ID/g; tissue uptake at 12 h ([3]; Heart uptake): 0.63 %ID/g; tissue uptake at 4 h ([3]; Intestine uptake): 9.85 %ID/g; tissue uptake at 12 h ([3]; Intestine uptake): 7.97 %ID/g; tissue uptake at 12 h ([3]; Kidney uptake): 4.48 %ID/g; tissue uptake at 4 h ([3]; Liver uptake): 2.95 %ID/g; tissue uptake at 12 h ([3]; Liver uptake): 1.93 %ID/g; tissue uptake at 4 h ([3]; Lung uptake): 1.73 %ID/g; tissue uptake at 12 h ([3]; Lung uptake): 1.46 %ID/g; tissue uptake at 4 h ([3]; Muscle uptake): 0.52 %ID/g; tissue uptake at 12 h ([3]; Muscle uptake): 0.64 %ID/g; tissue uptake at 4 h ([3]; Spleen uptake): 2.65 %ID/g; tissue uptake at 12 h ([3]; Spleen uptake): 1.89 %ID/g; tissue uptake at 4 h ([3]; Stomach uptake): 2.96 %ID/g; tissue uptake at 12 h ([3]; Stomach uptake): 2.39 %ID/g; tissue uptake at 4 h ([3]; Tumor uptake): 6.22 %ID/g; tissue uptake at 12 h ([3]; Tumor uptake): 4.11 %ID/g; tissue to tissue ratio at 4 h ([3]; Tumor-to-tissue ratio, Blood): 20.3; tissue to tissue ratio at 12 h ([3]; Tumor-to-tissue ratio, Blood): 14.2; tissue to tissue ratio at 4 h ([3]; Tumor-to-tissue ratio, Bone): 4.41; tissue to tissue ratio at 12 h ([3]; Tumor-to-tissue ratio, Bone): 2.82; tissue to tissue ratio at 4 h ([3]; Tumor-to-tissue ratio, Brain): 68.7; tissue to tissue ratio at 12 h ([3]; Tumor-to-tissue ratio, Brain): 39.9; tissue to tissue ratio at 4 h ([3]; Tumor-to-tissue ratio, Heart): 8.31; tissue to tissue ratio at 12 h ([3]; Tumor-to-tissue ratio, Heart): 6.53; tissue to tissue ratio at 4 h [3, 8]: 0.66; tissue to tissue ratio at 12 h [3, 8]: 0.52; tissue to tissue ratio at 4 h ([3]; Tumor-to-tissue ratio, Liver): 2.11; tissue to tissue ratio at 12 h ([3]; Tumor-to-tissue ratio, Liver): 2.13; tissue to tissue ratio at 4 h ([3]; Tumor-to-tissue ratio, Lung): 3.6; tissue to tissue ratio at 12 h ([3]; Tumor-to-tissue ratio, Lung): 2.84; tissue to tissue ratio at 4 h ([3]; Tumor-to-tissue ratio, Muscle): 12; tissue to tissue ratio at 12 h ([3]; Tumor-to-tissue ratio, Muscle): 6.6; tissue to tissue ratio at 4 h ([3]; Tumor-to-tissue ratio, Spleen): 2.36; tissue to tissue ratio at 12 h ([3]; Tumor-to-tissue ratio, Spleen): 2.22; tissue to tissue ratio at 4 h ([3]; Tumor-to-tissue ratio, Stomach): 2.1; tissue to tissue ratio at 12 h ([3]; Tumor-to-tissue ratio, Stomach): 1.72; tissue to tissue ratio at 4 h ([3]; in vivo): 1.27; tissue to tissue ratio at 12 h ([3]; in vivo): 0.92; Effective absorbed dose [4]: 1.35 × 10^−2 mSv/MBq; Half-Life (T1/2α) [5]: 1.94 min; Half-Life (T1/2β) [5]: 11.81 min

Question: For `CCCCCCCCCCCCCCCC(=O)N[C@@H](CCC(=O)NCCCC[C@H](NC(=O)CN1CCN(CC(=O)O)CCN(CC(=O)O)CCN(CC(=O)O)CC1)C(=O)O)C(=O)O` [^177Lu-Palm, [^177Lu]Lu-DOTA-Palm, metal not drawn], which “Tumor-to-tissue ratio, Brain” value [6] is on record?
Answer: Its value is 14.69.

Question: What about the “Half-Life (T1/2α)” value [5] of the same compound?
Answer: Its value is 3.33 min.

Question: And the “Half-Life (T1/2β)” value [5]?
Answer: Its value is 29.82 min.

Question: With Albumin as the compound, how does the Biological half-life [7] read?
Answer: Its Biological half-life is 19 days.
